Results: US20120171122A1 (published 2012)
No end group written: not given here. *: point of attachment. Biotin = O=C1N[C@H]2[C@H](CS[C@H]2CCCCC(=O)*)N1

Biological target: T1, N-terminally biotinylated peptide HRRSARYLDTVL
T1 construct: Captured through its biotin on streptavidin coated onto the ELISA wells; also called ligand of NHERF PDZ1 mutant H9
T1 peptide: Biotin-HRRSARYLDTVL
Assay: ELISA; serial dilutions of GST-PDZ fusion on biotinylated peptide captured on streptavidin-coated wells; anti-His HRP detection
Method: The GST-PDZ fusion protein expressed by clone H2 was partially characterized. The DNA of clone H2 was transformed into E. coli strain BL21 [DE3] and the resulting transformant induced in 1 mL culture volume using 0.1 mM IPTG for 2.5 hours at 30° C. with shaking at 300 rpm. The cells were harvested from the culture medium and lysed using BugBuster (Novagen). Batch affinity purification was carried out using 50 μl of glutathione affinity resin (Novagen), eluting the bound protein in reduced glutathione elution buffer. […] The eluted protein was tested by ELISA for binding to N-terminally biotinylated peptide […] (SEQ ID NO: 14) bound to 0.1 μg of streptavidin coated onto each well of an ELISA plate. Serial dilutions of the protein were added to wells in which the peptide was present or absent (negative controls) and immuno-detection of a C-terminal hexahistidine tag provided by the modified pGEX-2TK vector was carried out using a horseradish peroxidase-conjugated antibody (Roche).

B1: GST-PDZ fusion protein expressed by clone H2 (NHERF PDZ1 loop-variant H2, CHPQFC inserted in loop β23 of NHERF PDZ1 mutant H9) (designed binder, not shown: a dimerising Fc or GST; large carriers; small tags and cut ends)
chain: LPRLCCLEKGPNGYGFHLHGEKGCHPQFCKVGQYIGLVVPGSPAEKAGLLAGDRLVEVNGENVEKETHQQVVSRIRAALNAVCLLVVDPE
notes: Partially purified on glutathione resin from induced E. coli BL21[DE3]; also called PDZ loop-variant H2; NHERF PDZ loop-variant H2
binding result: binds
